Data as given in US20120220489A1.

How the values were obtained:
[1] = molecular target: Histone H3 recombinant protein, human, Upstate 14-494 (human) (UniProt P68431); assay: RPA, competition: +free Erk1 peptide 1000 nM
[2] = molecular target: ERK1 (p44) active (GST tagged), human, Invitrogen PV 3311 (human) (UniProt P27361); assay: RPA, competition: +free Erk1 peptide 1000 nM
[3] = molecular target: pErk1/2-BSA 2.7x peptide-protein conjugate (human; bovine); assay: RPA, competition: +free Erk1 peptide 1000 nM
[4] = molecular target: pRb recombinant protein, human, Active Motif 31 128 (human) (UniProt P06400); assay: RPA, competition: +free Erk1 peptide 1000 nM
[5] = molecular target: Histone H3 recombinant protein, calf, Roche 11 034 758 001 (calf) (UniProt P68432); assay: RPA, competition: +free Erk1 peptide 1000 nM
[6] = molecular target: Histone H3-BSA 2.7x peptide-protein conjugate (bovine); assay: RPA, competition: +free Erk1 peptide 1000 nM
[7] = molecular target: ERK1 (p42) active (phospho), human, Active Motif 31 152 (human) (UniProt P27361); assay: RPA, competition: +free Erk1 peptide 1000 nM
[8] = molecular target: ERK1 (p44) inactive (GST tagged), human, Invitrogen PV 3312 (human) (UniProt P27361); assay: RPA, competition: +free Erk1 peptide 1000 nM
[9] = molecular target: Erk1-BSA 2.7x peptide-protein conjugate (human; bovine); assay: RPA, competition: +free Erk1 peptide 1000 nM
[10] = molecular target: ERK1 (p44), human, Cell Signaling Technology 7416 (human) (UniProt P27361); assay: RPA, competition: +free Erk1 peptide 1000 nM
[11] = molecular target: pRb-BSA 1x peptide-protein conjugate (bovine); assay: RPA, competition: +free Erk1 peptide 1000 nM
[12] = molecular target: ERK2 (p42), human, Biosource PHO 0104 (human) (UniProt P28482); assay: RPA, competition: +free Erk1 peptide 1000 nM
[13] = molecular target: Histone H3 recombinant protein, human, Upstate 14-494 (human) (UniProt P68431); assay: RPA, competition: +recombinant protein 100 nM (not named)
[14] = molecular target: ERK1 (p44) active (GST tagged), human, Invitrogen PV 3311 (human) (UniProt P27361); assay: as above
[15] = molecular target: pErk1/2-BSA 2.7x peptide-protein conjugate (human; bovine); assay: as above
[16] = molecular target: pRb recombinant protein, human, Active Motif 31 128 (human) (UniProt P06400); assay: as above
[17] = molecular target: Histone H3 recombinant protein, calf, Roche 11 034 758 001 (calf) (UniProt P68432); assay: as above
[18] = molecular target: Histone H3-BSA 2.7x peptide-protein conjugate (bovine); assay: as above
[19] = molecular target: ERK1 (p42) active (phospho), human, Active Motif 31 152 (human) (UniProt P27361); assay: as above
[20] = molecular target: ERK1 (p44) inactive (GST tagged), human, Invitrogen PV 3312 (human) (UniProt P27361); assay: as above
[21] = molecular target: Erk1-BSA 2.7x peptide-protein conjugate (human; bovine); assay: as above
[22] = molecular target: ERK1 (p44), human, Cell Signaling Technology 7416 (human) (UniProt P27361); assay: as above
[23] = molecular target: pRb-BSA 1x peptide-protein conjugate (bovine); assay: as above
[24] = molecular target: ERK2 (p42), human, Biosource PHO 0104 (human) (UniProt P28482); assay: as above
[25] = molecular target: Histone H3 recombinant protein, human, Upstate 14-494 (human) (UniProt P68431); assay: RPA, normal assay
[26] = molecular target: ERK1 (p44) active (GST tagged), human, Invitrogen PV 3311 (human) (UniProt P27361); assay: RPA, normal assay
[27] = molecular target: pRb recombinant protein, human, Active Motif 31 128 (human) (UniProt P06400); assay: RPA, normal assay
[28] = molecular target: Histone H3 recombinant protein, calf, Roche 11 034 758 001 (calf) (UniProt P68432); assay: RPA, normal assay
[29] = molecular target: Histone H3-BSA 2.7x peptide-protein conjugate (bovine); assay: RPA, normal assay
[30] = molecular target: ERK1 (p42) active (phospho), human, Active Motif 31 152 (human) (UniProt P27361); assay: RPA, normal assay
[31] = molecular target: ERK1 (p44) inactive (GST tagged), human, Invitrogen PV 3312 (human) (UniProt P27361); assay: RPA, normal assay
[32] = molecular target: Erk1-BSA 2.7x peptide-protein conjugate (human; bovine); assay: RPA, normal assay
[33] = molecular target: ERK1 (p44), human, Cell Signaling Technology 7416 (human) (UniProt P27361); assay: RPA, normal assay
[34] = molecular target: pRb-BSA 1x peptide-protein conjugate (bovine); assay: RPA, normal assay
[35] = molecular target: ERK2 (p42), human, Biosource PHO 0104 (human) (UniProt P28482); assay: RPA, normal assay

Sequence of pErk1/2-BSA 2.7x peptide-protein conjugate (human; bovine) (P02769 25-607 limits assumed): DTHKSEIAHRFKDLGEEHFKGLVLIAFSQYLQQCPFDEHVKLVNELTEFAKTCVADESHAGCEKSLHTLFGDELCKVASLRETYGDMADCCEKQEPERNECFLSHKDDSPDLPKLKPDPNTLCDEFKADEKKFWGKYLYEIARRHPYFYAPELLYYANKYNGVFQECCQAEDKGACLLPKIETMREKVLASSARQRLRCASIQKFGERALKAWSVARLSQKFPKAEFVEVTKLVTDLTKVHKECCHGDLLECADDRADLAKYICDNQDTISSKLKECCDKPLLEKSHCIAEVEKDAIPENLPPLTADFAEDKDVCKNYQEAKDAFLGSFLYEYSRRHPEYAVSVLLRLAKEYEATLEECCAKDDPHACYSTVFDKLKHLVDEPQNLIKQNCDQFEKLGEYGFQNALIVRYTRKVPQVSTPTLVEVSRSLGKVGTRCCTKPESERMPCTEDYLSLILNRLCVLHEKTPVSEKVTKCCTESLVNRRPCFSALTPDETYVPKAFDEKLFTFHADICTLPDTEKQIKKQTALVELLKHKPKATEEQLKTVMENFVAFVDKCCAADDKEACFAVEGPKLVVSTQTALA
Sequence of pRb-BSA 1x peptide-protein conjugate (bovine) (P02769 25-607 limits assumed): as above
Sequence of Histone H3-BSA 2.7x peptide-protein conjugate (bovine) (P02769 25-607 limits assumed): as above
Sequence of Erk1-BSA 2.7x peptide-protein conjugate (human; bovine) (peptide, as listed by the source limits assumed, chain 1 of 2): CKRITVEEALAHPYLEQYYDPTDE
Sequence of Erk1-BSA 2.7x peptide-protein conjugate (human; bovine) (P02769 25-607 limits assumed, chain 2 of 2): as the sequence (P02769 25-607 limits assumed) above
Sequence of UniProt P06400 (P06400 whole entry): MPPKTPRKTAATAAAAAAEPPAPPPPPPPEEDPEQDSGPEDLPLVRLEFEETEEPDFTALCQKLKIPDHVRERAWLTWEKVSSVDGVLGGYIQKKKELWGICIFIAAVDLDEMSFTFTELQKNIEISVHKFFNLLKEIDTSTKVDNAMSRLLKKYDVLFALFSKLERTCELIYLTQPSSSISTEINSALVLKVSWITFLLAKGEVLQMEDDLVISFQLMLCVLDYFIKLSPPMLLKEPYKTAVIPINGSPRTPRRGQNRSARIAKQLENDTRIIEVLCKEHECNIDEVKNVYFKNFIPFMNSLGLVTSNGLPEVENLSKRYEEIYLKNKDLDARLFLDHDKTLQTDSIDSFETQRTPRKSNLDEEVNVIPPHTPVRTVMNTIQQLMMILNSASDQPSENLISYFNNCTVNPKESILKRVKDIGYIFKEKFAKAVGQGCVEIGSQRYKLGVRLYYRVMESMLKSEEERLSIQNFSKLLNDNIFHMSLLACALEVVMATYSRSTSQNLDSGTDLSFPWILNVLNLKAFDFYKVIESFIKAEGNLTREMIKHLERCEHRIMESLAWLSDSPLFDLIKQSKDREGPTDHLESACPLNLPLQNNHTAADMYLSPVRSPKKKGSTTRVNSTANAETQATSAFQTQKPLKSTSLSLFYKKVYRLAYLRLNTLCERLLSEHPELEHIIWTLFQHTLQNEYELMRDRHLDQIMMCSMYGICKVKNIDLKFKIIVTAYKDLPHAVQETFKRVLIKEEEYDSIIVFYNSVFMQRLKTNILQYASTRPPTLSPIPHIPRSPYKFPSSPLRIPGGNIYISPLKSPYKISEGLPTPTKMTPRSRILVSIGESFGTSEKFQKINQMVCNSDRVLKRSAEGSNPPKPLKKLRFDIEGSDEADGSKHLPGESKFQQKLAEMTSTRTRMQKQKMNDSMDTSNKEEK
Sequence of UniProt P28482 (P28482 2-360 limits assumed): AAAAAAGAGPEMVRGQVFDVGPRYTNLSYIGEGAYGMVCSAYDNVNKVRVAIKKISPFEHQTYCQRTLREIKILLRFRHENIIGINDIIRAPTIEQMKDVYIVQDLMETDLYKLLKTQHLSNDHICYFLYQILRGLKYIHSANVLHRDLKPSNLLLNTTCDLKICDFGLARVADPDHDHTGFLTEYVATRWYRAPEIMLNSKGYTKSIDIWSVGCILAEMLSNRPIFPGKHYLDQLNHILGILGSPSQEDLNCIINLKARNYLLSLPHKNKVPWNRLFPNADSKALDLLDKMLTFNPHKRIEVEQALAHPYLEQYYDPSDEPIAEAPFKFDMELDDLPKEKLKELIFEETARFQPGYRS

Row | Substance | maximum standard curve signal [1] | maximum standard curve signal [2] | maximum standard curve signal [3] | maximum standard curve signal [4] | maximum standard curve signal [5] | maximum standard curve signal [6] | maximum standard curve signal [7] | maximum standard curve signal [8] | maximum standard curve signal [9] | maximum standard curve signal [10] | maximum standard curve signal [11] | maximum standard curve signal [12] | maximum standard curve signal [13] | maximum standard curve signal [14] | maximum standard curve signal [15] | maximum standard curve signal [16] | maximum standard curve signal [17] | maximum standard curve signal [18] | maximum standard curve signal [19] | maximum standard curve signal [20] | further results
1 | p44/42 MAPK (Erk1/2) antibody, Cell Signaling Technology #4695, rabbit monoclonal | < 0.01 RFI | 0.02 RFI | 0.01 RFI | < 0.01 RFI | < 0.01 RFI | 0.01 RFI | < 0.01 RFI | 0.04 RFI | 0.01 RFI | < 0.01 RFI | 0.01 RFI | 0.01 RFI | 0.1 RFI | 0.39 RFI | 0.09 RFI | 0.09 RFI | 0.08 RFI | 0.12 RFI | 0.11 RFI | 0.59 RFI | maximum standard curve signal [21]: 0.29 RFI; maximum standard curve signal [22]: 0.1 RFI; maximum standard curve signal [23]: 0.1 RFI; maximum standard curve signal [24]: 0.16 RFI; maximum standard curve signal [25]: 0.01 RFI; maximum standard curve signal [26]: 5.17 RFI; maximum standard curve signal [27]: 0.01 RFI; maximum standard curve signal [28]: 0.01 RFI; maximum standard curve signal [29]: 0.01 RFI; maximum standard curve signal [30]: 0.22 RFI; maximum standard curve signal [31]: 7.12 RFI; maximum standard curve signal [32]: 2.77 RFI; maximum standard curve signal [33]: 0.04 RFI; maximum standard curve signal [34]: 0.01 RFI; maximum standard curve signal [35]: 1.51 RFI
2 | p44/42 MAPK (Erk1/2) antibody, Cell Signaling Technology #9102, rabbit polyclonal | < 0.01 RFI | 4.65 RFI | 0.01 RFI | < 0.01 RFI | < 0.01 RFI | 0.07 RFI | 0.23 RFI | 7.28 RFI | 0.06 RFI | 0.03 RFI | 0.01 RFI | 0.91 RFI | 0.03 RFI | 0.11 RFI | 0.04 RFI | 0.04 RFI | 0.03 RFI | 0.1 RFI | 0.03 RFI | 0.19 RFI | maximum standard curve signal [21]: 0.12 RFI; maximum standard curve signal [22]: 0.03 RFI; maximum standard curve signal [23]: 0.04 RFI; maximum standard curve signal [24]: 0.07 RFI; maximum standard curve signal [26]: 7.2 RFI; maximum standard curve signal [29]: 0.08 RFI; maximum standard curve signal [30]: 0.36 RFI; maximum standard curve signal [31]: 8.96 RFI; maximum standard curve signal [32]: 2.44 RFI; maximum standard curve signal [33]: 0.05 RFI; maximum standard curve signal [34]: 0.01 RFI; maximum standard curve signal [35]: 1.51 RFI
